We go through 19 sequences from the supplement of paper PMC9170038.

The test system of data set [1] is MS2 coat protein. Description: apparent KD of MS2 coat protein, switch ON state; designed switch direction (-1 OFF switch, 1 ON switch): -1; higher = weaker reporter binding. To be noted: FMN input: 0 or 200 uM; Eterna round: R93 (includes R88 designs). In outline:
(§1)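 Designed RNA switches were transcribed on-chip from Illumina sequencing clusters and titrated with SNAP-549-labelled MS2 coat protein in twofold steps from 0.7 or 1.5 nM up to 3 µM. Each step lasted 0.8–1.5 h at first and 10–20 min by the end, in 100 mM Tris-HCl pH 7.5, 80 mM KCl and 4 mM MgCl2, without or with constant ligand. Apparent KD is the median, for each design, of fits to normalised cluster binding curves.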

The test system of data set [2] is MS2 coat protein. Description: apparent KD of MS2 coat protein, switch OFF state (with FMN for OFF switches, without FMN for ON switches); designed switch direction (-1 OFF switch, 1 ON switch): -1; higher = weaker reporter binding. Conditions: FMN input: 0 or 200 uM; Eterna round: R93 (includes R88 designs). In a few lines:
as §1

“GCUGGCGUAGGAUAUACAUGAGGAUCACCCAUGUGAGAGAAAAAAGUGAGAAAGAAAAGUAGAAGGACGUUAGG [salish99-ex3-116]”: the “apparent KD of MS2 coat protein” value with MS2 coat protein [1] is 40.4 nM; in the data set on MS2 coat protein [2], 106 nM.

With “GCUUGGGUAGGAUAUACAUGAGGAUCACCCAUGUGAGAGAAAAAAGUGAGAAAGAAAAGUAGAAGGACCUGAGG [salish99-ex3-107]”, the “apparent KD of MS2 coat protein” value in the data set on MS2 coat protein [1] worked out at 123 nM; in the data set on MS2 coat protein [2], 244 nM.

As to “GGAAAACAUGAGGAUCACCCAUGUGAGGAUAUCGAUGUCCAAACCAAAGUGCGGGACUCGAGAAGGCACUUGGA [salish99-ex1-37]”, the “apparent KD of MS2 coat protein” value with MS2 coat protein [1] is 45.9 nM; in the data set on MS2 coat protein [2], 28.6 nM.

As for “GGAAAGCAAGGAUAUACAAACAAACAAACAAACAAAAGGGAACAUGAGGAUCACCCAUGUAGAAGGUGCAAACA [Exclusion 2 XX]”, the results for the “apparent KD of MS2 coat protein” value in the data set on MS2 coat protein [1] and with MS2 coat protein [2] were 41 nM and 31.8 nM, respectively.

As to “GGAUGCCAAGGAUAUACAUGAGGAUCACCCAUGUGAGAGAAAAAAGUGAGAAAGAAAAGUAGAAGGUGGUGUCG [salish99-ex3-92]”, the results for the “apparent KD of MS2 coat protein” value with MS2 coat protein [1] and with MS2 coat protein [2] were 33.1 nM and 65.2 nM, respectively.

With “GGAUGUCUAGGAUAUACAUGAGGAUCACCCAUGUGAGAGAAAAAAGUGAGAAAGAAAAGUAGAAGGAGGUGUCG [salish99-ex3-88]”, the “apparent KD of MS2 coat protein” value with MS2 coat protein [1] turned out to be 35.6 nM; in the data set with MS2 coat protein [2] it was 37.5 nM.

With “GGAUGUGAAGGAUAUACAUGAGGAUCACCCAUGUGAGAGAAAAAAGUGAGAAAGAAAAGUAGAAGGUCGUGUCG [salish99-ex3-86]”, the entries for the “apparent KD of MS2 coat protein” value in the data set with MS2 coat protein [1] and with MS2 coat protein [2] were 34.9 nM and 36.9 nM, respectively.

As for “GGAUGUGUAGGAUAUACAUGAGGAUCACCCAUGUGAGAGAAAAAAGUGAGAAAGAAAAGUAGAAGGACGUGUCG [salish99-ex3-89]”, the figures for the “apparent KD of MS2 coat protein” value in the data set with MS2 coat protein [1] and in the data set with MS2 coat protein [2] were 41 nM and 38 nM, respectively.

On to “GGUUGGCGAGGAUAUACAUGAGGAUCACCCAUGUGAGAGAAAAAAGUGAGAAAGAAAAGUAGAAGGCGCUGACC [salish99-ex3-04]”, for which the “apparent KD of MS2 coat protein” value in the data set with MS2 coat protein [1] worked out at 45.7 nM; with MS2 coat protein [2] it was 242 nM.

For “GUAGUGUGAGGAUAUGAUUAAAAGAAGGGAAAGAGACUGCAUCAGAAGGCACAUGAGGAUCACCCAUGUAUGAA [JR_Exc004_Sub1223]”, the “apparent KD of MS2 coat protein” value is 34.3 nM with MS2 coat protein [1] and 45.7 nM in the data set on MS2 coat protein [2].

As to “GUAGUGUGAGGAUAUGGAAAGAAGAAGAAAAGGUAGAAAAACUAGAAGGCACAUGAGGAUCACCCAUGUAAGAA [JR_Exc004_Sub1710]”, the “apparent KD of MS2 coat protein” value in the data set on MS2 coat protein [1] was 29.1 nM; in the data set with MS2 coat protein [2], 20.3 nM.

Consider “GUCAGCUGAGGAUAUACAGGUGAGGCCGCAUAACAAAAUAUACAUGAGGAUCACCCAUGUAGAAGGCGGAAGAC [Soreramare]”, for which the entries for the “apparent KD of MS2 coat protein” value in the data set on MS2 coat protein [1] and with MS2 coat protein [2] were 41.1 nM and 47.6 nM, respectively.

For the sequence “GUCAGCUGAGGAUAUACAGGUGAUGCCGCAUAACAAAAUAUACAUGAGGAUCACCCAUGUAGAAGGCGGAAGAC [Zalaa]”, the “apparent KD of MS2 coat protein” value stood at 73.4 nM in the data set with MS2 coat protein [1] and 20.2 nM with MS2 coat protein [2].

As for “GUGUACAGAGGAUAUACUGGAGCUAGGAAACUAGCAAGAUCACAUGAGGAUCACCCAUGUAGAAGGCUGUACAC [Ex2: 743]”, the “apparent KD of MS2 coat protein” value with MS2 coat protein [1] was 90.8 nM; in the data set with MS2 coat protein [2] it was 20.2 nM.

Turning to “UAAAGACAUGAGGAUCACCCAUGUGAGGAUAUCGGAGAUAACGGAACAUCAAGUUCGGCGAGAAGGCGCAGGAA [JR_Exc001_Sub405]”, the “apparent KD of MS2 coat protein” value with MS2 coat protein [1] worked out at 33.4 nM; in the data set with MS2 coat protein [2] it was 38 nM.

Regarding “UAUACGUGAGGAUAUGCGAAUACCACGUAAGACAUACAGACGCAGAAGGCACAUGAGGAUCACCCAUGUGAACC [JR_Exc004_Sub314]”, the results for the “apparent KD of MS2 coat protein” value in the data set with MS2 coat protein [1] and with MS2 coat protein [2] were 19.2 nM and 16.3 nM, respectively.

As for “UAUACGUGAGGAUAUGCGAAUACCACGUUAGACAUAUAGACGCAGAAGGCACAUGAGGAUCACCCAUGUGAACC [JR_Exc004_Sub315]”, the “apparent KD of MS2 coat protein” value came out at 21.4 nM in the data set on MS2 coat protein [1] and 16.4 nM in the data set with MS2 coat protein [2].

As to “UCCUCACAUGAGGAUCACCCAUGUGAGGAUAUCUGAAAAAAAAAAAAAAAAAAAAAUCAGAGAAGGCACAUGGG [Design 11: Super Stable Short Helix 1]”, the results for the “apparent KD of MS2 coat protein” value with MS2 coat protein [1] and with MS2 coat protein [2] were 37.1 nM and 4.55 nM, respectively.

Turning to “UCGUGGUCAGGAUAUACAUGAGGAUCACCCAUGUAAAAGAACACAAAGGAGAGACGACGUAGAAGGGACAAAUA [Erqugere]”, the entries for the “apparent KD of MS2 coat protein” value in the data set on MS2 coat protein [1] and in the data set on MS2 coat protein [2] were 43.7 nM and 42.1 nM, respectively.
